Measured values as given in article PMC6214142, “Transcription of the Human 5-Hydroxytryptamine Receptor 2B (HTR2B) Gene Is under the Regulatory Influence of the Transcription Factors NFI and RUNX1 in Human Uveal Melanoma”.

Legend:
NFIX = NFIX (Homo sapiens, UniProt Q14938 1-502); assay: EMSA; EMSA: 10 mM Hepes pH 7.9, 10% glycerol, 0.1 mM EDTA, 0.5 mM DTT, 0.25 mM PMSF, 50 mM KCl, 2 ug poly(dI:dC); Tris-glycine gels at 4 C; footprinting binding 5 min
NFIB = NFIB (Homo sapiens, UniProt O00712 1-420); assay: EMSA; EMSA: 10 mM Hepes pH 7.9, 10% glycerol, 0.1 mM EDTA, 0.5 mM DTT, 0.25 mM PMSF, 50 mM KCl, 2 ug poly(dI:dC); Tris-glycine gels at 4 C; footprinting binding 5 min at room temperature with 5 ug poly(dI:dC); conditions: protein: recombinant; chain copies: 2; label: 5' 32P as probe; blunt
NFIC = NFIC (Homo sapiens, UniProt P08651 1-508); assay: as above; conditions: protein: recombinant; chain copies: 2; label: 5' 32P as probe; blunt
NFIC, sequence (P08651 whole entry): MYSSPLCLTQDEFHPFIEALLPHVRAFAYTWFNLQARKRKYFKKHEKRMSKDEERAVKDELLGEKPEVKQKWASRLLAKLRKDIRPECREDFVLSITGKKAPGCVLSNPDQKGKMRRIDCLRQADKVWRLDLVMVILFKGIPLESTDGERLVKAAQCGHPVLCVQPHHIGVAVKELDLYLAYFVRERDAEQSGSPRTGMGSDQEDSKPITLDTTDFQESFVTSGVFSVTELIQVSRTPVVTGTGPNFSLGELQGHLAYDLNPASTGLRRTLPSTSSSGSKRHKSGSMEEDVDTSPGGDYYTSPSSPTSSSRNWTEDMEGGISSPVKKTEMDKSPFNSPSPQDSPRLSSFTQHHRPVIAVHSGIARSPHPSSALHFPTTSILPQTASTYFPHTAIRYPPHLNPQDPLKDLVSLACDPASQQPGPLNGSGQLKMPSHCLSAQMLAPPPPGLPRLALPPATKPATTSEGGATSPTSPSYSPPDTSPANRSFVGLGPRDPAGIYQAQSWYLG

NFIA = NFIA (Homo sapiens, UniProt Q12857 1-509); assay: as above; conditions: protein: recombinant; chain copies: 2; label: 5' 32P as probe; blunt
NFIA, sequence (Q12857 whole entry): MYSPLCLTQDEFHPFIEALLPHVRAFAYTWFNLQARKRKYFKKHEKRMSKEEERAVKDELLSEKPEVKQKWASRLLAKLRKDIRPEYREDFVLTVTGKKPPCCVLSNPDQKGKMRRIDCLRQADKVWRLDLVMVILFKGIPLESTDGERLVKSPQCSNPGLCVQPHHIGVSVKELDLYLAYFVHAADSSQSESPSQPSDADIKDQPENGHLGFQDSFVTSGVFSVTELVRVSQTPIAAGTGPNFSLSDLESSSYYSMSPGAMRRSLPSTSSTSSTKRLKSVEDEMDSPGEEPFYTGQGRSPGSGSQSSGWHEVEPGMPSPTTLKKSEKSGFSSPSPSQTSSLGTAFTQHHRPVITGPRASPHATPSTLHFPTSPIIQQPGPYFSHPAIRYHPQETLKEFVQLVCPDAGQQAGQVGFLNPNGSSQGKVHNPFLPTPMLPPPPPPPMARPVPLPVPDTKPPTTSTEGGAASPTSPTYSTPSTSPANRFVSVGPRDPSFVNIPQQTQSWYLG

Measured: binding result

B1: NFI high affinity probe (dsDNA)
DNA 1: TTATTTTGGATTGAAGCCAATATGAG
DNA 2: CTCATATTGGCTTCAATCCAAAATAA
binds: NFIX | NFIB | NFIC | NFIA
